As a reminder, the Kd is the concentration at which binding is half-saturated. Read a low Kd as a tighter complex. The koff is a measure of how fast the partners let go of each other. Low values mean slow dissociation, high ones fast dissociation. Usually kon stands for a measure of how fast the partners come together.

Changes are numbered by the printed parent chain.

The values below come from patent US20230235054A1 (BIOATLA, published 2023).

B1: BAP-143-wildtype (antibody, V domains shown)
VH: EVQLVESGGGLVQPGGSLRLSCAASGFTFSSYNMNWVRQAPGKGLEWVSYISSSSSTIYYADSVKGRFTISRDNAKNSLSLQMNSLRDEDTAVYYCARAYYYGMDVWGQGTTVTVSS
VL: DIQMTQSPSSVSASVGDRVTITCRASQGISGWLAWYQQKPGKAPKFLIYAASTLQSGVPSRFSGSGSGTDFTLTISSLQPEDFATYYCQQANSFPPTFGGGTKVEIK
notes: 150 kDa used in SPR; also called BAP143-00-00; benchmark (BM)
B2: BAP-143-06-24-16 (antibody, V domains shown)
VH: EVQLVQSGAEVKKPGATVKISCKVSGFTFSSYNMNWIRQSPSRGLEWLGYISSSSSTIYYADSVKGRFTISRDNSKNTLYLQMNSLRAEDTAVYYCARAYYYGDDVWGQGTLVTVSS
VL: B1 VL with R24H
notes: Used as a conjugate with a linker payload (CAB ADC)
B3: BAP-143-00-01 (antibody, V domains shown)
VH: B1 VH
VL: B1 VL with L33E
notes: as for B2
B4: BAP-143-07-03-12 (antibody, V domains shown)
VH: B1 VH with V106K
VL: B1 VL with L33E
notes: as for B2
B5: BAP-143-06-33-16 (antibody, V domains shown)
VH: B2 VH
VL: B1 VL with L33E
notes: as for B2
B6: BAP-143-00-05 (antibody, V domains shown)
VH: B1 VH with R98E
VL: B1 VL
notes: as for B2
B7: BAP-143-00-06 (antibody, V domains shown)
VH: B1 VH with M104D
VL: B1 VL
notes: as for B2
B8: BAP-143-00-03 (antibody, V domains shown)
VH: B1 VH
VL: B1 VL with P96D
notes: as for B2
B9: BAP-143-00-04 (antibody, V domains shown)
VH: B1 VH with M34D
VL: B1 VL
notes: as for B2
B10: BAP-143-06-33-03 (antibody, V domains shown)
VH: QVQLVQSGAEVKKPGASVKVSCKASGFTFSSYNMNWVRQARGQRLEWIGYISSSSSTIYYADSVKGRFTISRDNSKNTLYLQMNSLRAEDTAVYYCARAYYYGMDKWGQGTLVTVSS
VL: B1 VL with F94E
notes: as for B2

One assay addresses T1, RatNectin4-His (rat, UniProt D3ZET1 31-348).
T1 construct: Immobilized on the SPR chip; not shown: His tag
T1 sequence: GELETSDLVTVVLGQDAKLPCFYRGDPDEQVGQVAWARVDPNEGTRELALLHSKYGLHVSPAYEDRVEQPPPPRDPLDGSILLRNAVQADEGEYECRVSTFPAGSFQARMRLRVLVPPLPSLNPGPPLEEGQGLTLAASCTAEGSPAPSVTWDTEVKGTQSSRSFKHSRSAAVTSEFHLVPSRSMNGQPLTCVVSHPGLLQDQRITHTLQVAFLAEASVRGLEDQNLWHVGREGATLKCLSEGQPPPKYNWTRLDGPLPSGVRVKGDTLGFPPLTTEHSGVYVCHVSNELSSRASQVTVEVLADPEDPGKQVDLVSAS
Briefly: SPR, RatNectin4-His immobilized, pH 6.5. As for the experimental part:
(§1) All injections were done at a flow rate of 25 μL/min at 25° C. The sensor surface was activated with 1-ethyl-3-(3-dimethylaminopropyl)-carbodiimide (EDC) and N-hydroxysuccinimide (NHS) (200 mM/50 mM) for 480 seconds. HuNectin4-His (2 μg/mL in 10 mM NaAc, pH4.5) was injected for 480s and the surface was inactivated by injecting 1M ethanolamine-HCl for 480s. CynoNectin4 was immobilized using the same conditions as described for huNectin4-His, except that the cynoNectin4 was diluted into 10 mM NaAc buffer having pH 5.0. The control surface was activated and deactivated using the same conditions, but without injecting protein. PBST buffer (PBS pH 7.4 with 0.05% TWEEN20™) was used as running buffer for the surface preparation. The running solution was switched to PBST with 30 mM sodium bicarbonate with the pH adjusted as indicated in the figures before the analyte injections. The instrument was equilibrated with the running solution for one hour before the first analyte injection.
(§2) The off-rate was measured for 360s. The chip surface was regenerated after each cycle of interaction analysis by injecting 6 μL of 10 mM glycine (pH 2.0). Flow cells 1 and 3 without immobilized protein were used as control surfaces for reference subtraction.
In addition, data with buffer only as analyte (0 nM analyte) was subtracted from each run. Double subtracted data was fitted with the provided analysis software Analyzer R2 (Sierra Sensors) using a 1:1 binding model. A molecular weight of 150 kDa was used to calculate the molar concentrations of the analytes. RatNectin4-His was immobilized in FC3 using the same conditions as described for cynoNectin4.
On the technique in general: Surface plasmon resonance follows binding to a sensor surface in real time, without labels.
Molecule B1 returned a Kd of 0.108 nM.

Molecule B2 returned a Kd of 0.0378 nM, an off-rate constant (koff) of 0.000128 s⁻¹ and an association rate constant (kon) of 3.39e+06 M⁻¹ s⁻¹.

In turn, B3 gave an equilibrium dissociation constant (Kd) of 1.36 nM, a koff of 0.000953 s⁻¹ and an on-rate constant (kon) of 700000 M⁻¹ s⁻¹.

In turn, B4 registered a Kd of 1.1 nM, a koff of 0.000868 s⁻¹ and a kon of 787000 M⁻¹ s⁻¹.

In the case of B5, the dissociation constant Kd is 0.101 nM, the off-rate constant (koff) was 0.000304 s⁻¹ and the kon was found to be 3.01e+06 M⁻¹ s⁻¹.

The next assay addresses T2, cynoNectin4-mFc (cyno, UniProt A0A2K5WES1 32-349).
T2 construct: Immobilized on the SPR chip; also called cyanoNectin4; not shown: mFc (mouse Fc)
T2 sequence: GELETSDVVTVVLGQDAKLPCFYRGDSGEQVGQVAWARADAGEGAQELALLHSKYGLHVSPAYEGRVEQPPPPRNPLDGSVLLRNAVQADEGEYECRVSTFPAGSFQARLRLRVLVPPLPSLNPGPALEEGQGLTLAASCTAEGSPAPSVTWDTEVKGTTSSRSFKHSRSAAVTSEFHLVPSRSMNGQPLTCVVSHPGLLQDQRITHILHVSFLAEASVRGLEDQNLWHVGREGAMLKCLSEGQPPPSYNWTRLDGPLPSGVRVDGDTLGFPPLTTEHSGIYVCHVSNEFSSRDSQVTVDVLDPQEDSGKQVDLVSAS
Briefly: SPR, cynoNectin4-mFc immobilized, pH 6.0. The method, then: (§3) Binding kinetics of anti-Nectin4 antibodies were measured by surface plasmon resonance using a SPR2/4 instrument (Sierra Sensors, Hamburg, Germany) and flat amine sensor chips. The SPR sensor contained four flow cells (FC1-FC4), each of which was addressed individually or in groups. huNectin4-His was immobilized in FC2, and cynoNectin4-mFc in FC4. No protein was immobilized in FC1 and FC3 which were used as control surfaces for FC2 and FC4, respectively.
as §1, §2
In the case of B1, the dissociation constant Kd came out at 0.311 nM.

As for B2, the affinity, expressed as Kd, was 0.207 nM; the koff worked out at 0.000579 s⁻¹; the kon is 2.8e+06 M⁻¹ s⁻¹.

The molecule B3 had a dissociation constant Kd of 1.85 nM, an off-rate (koff) of 0.00142 s⁻¹ and a kon of 769000 M⁻¹ s⁻¹.

For B4, the dissociation constant Kd was 1.15 nM, the koff worked out at 0.00113 s⁻¹ and the kon is 983000 M⁻¹ s⁻¹.

Take B5: the equilibrium dissociation constant (Kd) amounted to 0.187 nM, the koff was 0.000273 s⁻¹ and the kon was found to be 1.46e+06 M⁻¹ s⁻¹.

The target in the next assay is T3, recombinant human Nectin4 antigen (human, UniProt Q96NY8 32-349).
T3 construct: construct not described
T3 sequence (looked up): T2 sequence with A39V, V230I
Briefly: ELISA, ratio of EC50s. The method, then: (§4) 1) Coat ELISA plates with 100 μL of 1 μg/mL recombinant human Nectin4 antigen or cynoNectin4 antigen in carbonate-bicarbonate coating buffer. […] 2) Cover plates with sealing film and incubate overnight at 4° C. [0444] 3) Decant plates and tap out residual liquid on a stack of paper towels. [0445] 4) Wash wells twice by dispensing 200 μL of pH 6.0 or pH 7.4 ELISA incubation buffer to the wells and completely aspirate the contents. [0446] 5) Add 200 μL of pH 6.0 or pH 7.4 ELISA incubation buffer to the wells. Cover with sealing film and place the plate onto a plate shaker set to 50 rpm for 60 minutes at room temperature. [0447] 6) Decant plates and tap out residual liquid on a stack of paper towels. […] 7) Serially dilute test articles in 3-fold dilutions starting at 3000 ng/mL in pH 6.0 or pH 7.4 ELISA incubation buffer. […] 8) Add 100 μL/well of diluted test articles to the plates [0450] 9) Cover with sealing film and place the plates onto a plate shaker set to 50 rpm for 60 minutes at room temperature. [0451] 10) Decant plates and tap out residual liquid on a stack of paper towels. [0452] 11) Wash wells three times by dispensing 200 μL of pH 6.0 or pH 7.4 ELISA wash buffer to the wells and completely aspirate the contents. […] 12) Dilute the HRP secondary antibody at 1:2500 in pH 6.0 or pH 7.4 ELISA incubation buffer. [0454] […] 14) Cover with sealing film and place the plates onto a plate shaker set to 50 rpm for 60 minutes at room temperature. […] 15) Decant plates and tap out residual liquid on a stack of paper towels. […] 16) Wash wells three times by dispensing 200 μL of pH 6.0 or pH 7.4 ELISA wash buffer to the wells and completely aspirate the contents. [0458] 17) Dispense 50 μL per well of the TMB substrate solution into all wells of the plates.
(In general: ELISA stands for enzyme-linked immunosorbent assay.)
B2: the “EC50 ratio pH 7.4/6.0” value turned out to be 3.63.

For B6, the “EC50 ratio pH 7.4/pH 6.0” value amounted to 3.2.

For the molecule B7, the “EC50 ratio pH 7.4/pH 6.0” value turned out to be 2.83.

As to B8, the “EC50 ratio pH 7.4/pH 6.0” value came to 7.13.

For the molecule B9, the “EC50 ratio pH 7.4/pH 6.0” value was 2.37.

The target in another assay is T4, cynoNectin4 antigen (cynomolgus (cyno), UniProt A0A2K5WES1 32-349).
T4 construct: construct not described; also called cynomolgus (cyno) Nectin-4
T4 sequence: T2 sequence
Briefly: ELISA, ratio of EC50s. As for the experimental part:
as §4
For B2, the “EC50 ratio pH 7.4/6.0” value is 1.08.

Take B10: the “EC50 ratio pH 7.4/6.0” value came to 1.83.

B4: the “EC50 ratio pH 7.4/6.0” value is 3.6.

In another assay the target is T2, cynoNectin4-mFc. Kind of assay: SPR, cynoNectin4-mFc immobilized, pH 6.5. As for the experimental part: as §3, §1, §2
Molecule B1 gave a dissociation constant (Kd) of 0.209 nM.

In turn, B2 returned an equilibrium dissociation constant (Kd) of 0.0534 nM, an off-rate constant (koff) of 8.99e-05 s⁻¹ and an association rate constant (kon) of 1.68e+06 M⁻¹ s⁻¹.

In turn, B3 yielded a Kd of 1.88 nM, a dissociation rate constant (koff) of 0.000859 s⁻¹ and a kon of 457000 M⁻¹ s⁻¹.

Molecule B4 came in with a Kd of 1.6 nM, an off-rate constant (koff) of 0.000876 s⁻¹ and a kon of 549000 M⁻¹ s⁻¹.

The molecule B5 displayed a Kd of 0.163 nM, an off-rate (koff) of 0.00026 s⁻¹ and a kon of 1.6e+06 M⁻¹ s⁻¹.
